Measured values taken from article PMC9890643.

Target: apolipoprotein A-1 (ApoA1) (UniProt P02647 25-267)
Experiment: electrochemical aptasensor

apolipoprotein A-1 (ApoA1), sequence (P02647 25-267): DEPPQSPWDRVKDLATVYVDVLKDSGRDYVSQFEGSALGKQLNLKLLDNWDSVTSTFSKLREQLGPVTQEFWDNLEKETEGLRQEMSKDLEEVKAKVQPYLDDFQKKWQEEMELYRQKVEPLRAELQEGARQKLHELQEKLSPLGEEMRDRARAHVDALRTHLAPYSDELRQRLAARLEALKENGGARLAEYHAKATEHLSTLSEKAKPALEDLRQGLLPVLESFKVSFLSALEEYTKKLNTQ

## CCTCGGCACGTTCTCAGTAGCGCTCGCTGGTCATCCCACA (ssDNA, 5'-thiol-C6) [ApoA1 thiolated aptamer]
  binding result: binds
